Laboratory results: patent US20140303084A1 (Biogen, published 2014)
Square brackets hold non-standard residues; d marks the D form. Primed or numbered codes have the meaning given here. Side chains are listed from the residue outwards. Ends that are not written are not given here. * marks the point of attachment. Biotin = O=C1N[C@H]2[C@H](CS[C@H]2CCCCC(=O)*)N1; PEG2(3) = PEG2 spacer carrying biotin on Lys; Pra = C#CC[C@H](N)C(=O)O; PEG4′ = PEG4 spacer

B1: AKQGRPISPDrRAAGKLTCLASYCWLFWTGIA (peptide)
peptide: AKQGRPISPD[dR]RAAGKLTCLASYCWLFWTGIA
modifications: not fully specified; printed as AKQGRPISPDrRAAGKLTCLASYCWLFWTGIA; cysteine pairing not given here
B2: Pra-PEG4-PRIrTVGPGSrSASGKSTCLASYCWLFWTGIA (peptide)
peptide: [Pra][PEG4′]PRI[dR]TVGPGS[dR]SASGKSTCLASYCWLFWTGIA
modifications: not fully specified (C-terminus); printed as Pra-PEG4-PRIrTVGPGSrSASGKSTCLASYCWLFWTGIA; cysteine pairing not given here
B3: SKQGAPISPDrRAAGKLTCLASYCWLFWTGIA (peptide)
peptide: SKQGAPISPD[dR]RAAGKLTCLASYCWLFWTGIA
modifications: not fully specified; printed as SKQGAPISPDrRAAGKLTCLASYCWLFWTGIA; cysteine pairing not given here
B4: SKQGRPISPDrRAAGKLTCLASYCWLFWTG (peptide)
peptide: SKQGRPISPD[dR]RAAGKLTCLASYCWLFWTG
modifications: not fully specified; printed as SKQGRPISPDrRAAGKLTCLASYCWLFWTG; cysteine pairing not given here
B5: SKQGRPISPDrRAAGKLTCLASYCWLFWTGI (peptide)
peptide: SKQGRPISPD[dR]RAAGKLTCLASYCWLFWTGI
modifications: not fully specified; printed as SKQGRPISPDrRAAGKLTCLASYCWLFWTGI; cysteine pairing not given here
B6: SKQGRPISPDrRAAGKLTCLASYCWLFW (peptide)
peptide: SKQGRPISPD[dR]RAAGKLTCLASYCWLFW
modifications: not fully specified; printed as SKQGRPISPDrRAAGKLTCLASYCWLFW; cysteine pairing not given here
B7: SAQGRPISPDrRAAGKLTCLASYCWLFWTGIA (peptide)
peptide: SAQGRPISPD[dR]RAAGKLTCLASYCWLFWTGIA
modifications: not fully specified; printed as SAQGRPISPDrRAAGKLTCLASYCWLFWTGIA; cysteine pairing not given here
B8: SKQARPISPDrRAAGKLTCLASYCWLFWTGIA (peptide)
peptide: SKQARPISPD[dR]RAAGKLTCLASYCWLFWTGIA
modifications: not fully specified; printed as SKQARPISPDrRAAGKLTCLASYCWLFWTGIA; cysteine pairing not given here
B9: SRIrTVSPGSrSASGKSTCLASYCWLFWTGIA (peptide)
peptide: SRI[dR]TVSPGS[dR]SASGKSTCLASYCWLFWTGIA
modifications: not fully specified; printed as SRIrTVSPGSrSASGKSTCLASYCWLFWTGIA; cysteine pairing not given here
B10: SKQGRPISPDrRAAGKLTCLASYCWLFWT (peptide)
peptide: SKQGRPISPD[dR]RAAGKLTCLASYCWLFWT
modifications: not fully specified; printed as SKQGRPISPDrRAAGKLTCLASYCWLFWT; cysteine pairing not given here
B11: SKQGRAISPDrRAAGKLTCLASYCWLFWTGIA (peptide)
peptide: SKQGRAISPD[dR]RAAGKLTCLASYCWLFWTGIA
modifications: not fully specified; printed as SKQGRAISPDrRAAGKLTCLASYCWLFWTGIA; cysteine pairing not given here
B12: SKAGRPISPDrRAAGKLTCLASYCWLFWTGIA (peptide)
peptide: SKAGRPISPD[dR]RAAGKLTCLASYCWLFWTGIA
modifications: not fully specified; printed as SKAGRPISPDrRAAGKLTCLASYCWLFWTGIA; cysteine pairing not given here

These binders were tested against human Factor IXa (human, UniProt P00740 47-191; P00740 227-461) (assay: cell-based or functional assay).

First: B1
Second: B2
The “EC50 [µM], FXa generation assay” value of the first is lower: under 0.5 µM for the first, over 1 µM for the second.

B3 and SRSRTVSPGSRSASGKSTCLASYCWLFWTGIA cannot be ordered by “EC50 [µM], FXa generation assay” value: under 0.5 µM for the first, under 0.5 µM for the second.

Compared with SKQGRPISPDRRAAGKLTCLASYCWLFWTGIA[PEG2(3)]K([PEG2(3)-Biotin]) (cysteine pairing not given here) [SKQGRPISPDRRAAGKLTCLASYCWLFWTGIA-PEG2-K(PEG2-Biotin)], PSIRTVGPGSRSASGKLTCLASYCWLFWTGIA (not fully specified; cysteine pairing not given here) is lower in “EC50 [µM], FXa generation assay” value: over 1 µM for the first, under 0.5 µM for the second.

PRISTVGPGSRSASGKLTCLASYCWLFWTGIA and SRIRTVSPGSRSASGKSTCLASYCWLFWTGIA cannot be ordered by “EC50 [µM], FXa generation assay” value: under 0.5 µM for the first, under 0.5 µM for the second.

PRIRTVGPGSRSASGKSTCLASYCWLFWTGIA and SRIRTVGPGSRSASGKSTCLASYCWLFWTGIA cannot be ordered by “EC50 [µM], FXa generation assay” value: under 0.5 µM for the first, under 0.5 µM for the second.

PRIRTVGPGSRSASGKLTCLASYCWLFFTGIA and PRIRTVSPGSRSASGKSTCLASYCWLFWTGIA cannot be ordered by “EC50 [µM], FXa generation assay” value: under 0.5 µM for the first, under 0.5 µM for the second.

PRIRTVGPGSRSASGKLTCVASYCWLFWTGIA and PRIRTVGPGSRSASGKLTCAASYCWLFWTGIA cannot be ordered by “EC50 [µM], FXa generation assay” value: over 1 µM for the first, over 1 µM for the second.

PRIRTVGPGSRRASGKLTCLASYCWLFWTGIA and PRSRTVGPGSRSASGKLTCLASYCWLFWTGIA cannot be ordered by “EC50 [µM], FXa generation assay” value: under 0.5 µM for the first, under 0.5 µM for the second.

Going from PRIRTVGPGSRSASGKLTCLASYCWLFLTGIA to PRIRTVGPGSRSASGKLTCLASACWLFWTGIA, the “EC50 [µM], FXa generation assay” value rises from under 0.5 µM to over 1 µM.

PRIRTVGPGSRSASGKLTCLASYCWLFWSGIA and PRIRTVSPGSRSASGKLTCLASYCWLFWTGIA cannot be ordered by “EC50 [µM], FXa generation assay” value: under 0.5 µM for the first, under 0.5 µM for the second.

PRIRTVGPSSRSASGKLTCLASYCWLFWTGIA and PRIRTVGPGSRSASGKLTCLASYCWLFWTLIA cannot be ordered by “EC50 [µM], FXa generation assay” value: under 0.5 µM for the first, under 0.5 µM for the second.

Compared with PRIRTVGPGSRSASGKLSCLASYCWLFWTGIA, PRIRTVGPGSRSASGKLTCFASYCWLFWTGIA is higher in “EC50 [µM], FXa generation assay” value: under 0.5 µM for the first, over 1 µM for the second.

PRIRTVGPGSRSASGKLTCLASYCWLFATGIA and PRIRTVGPGSRSASGKLTCLASYCWLFWTFIA cannot be ordered by “EC50 [µM], FXa generation assay” value: under 0.5 µM for the first, under 0.5 µM for the second.

PRSRTVGPGSRSASGKSTCLASYCWLFWTGIA and PRIRSVGPGSRSASGKLTCLASYCWLFWTGIA cannot be ordered by “EC50 [µM], FXa generation assay” value: under 0.5 µM for the first, under 0.5 µM for the second.

Compared with PRIRTVGPGSRSASGKLTCLASYCWLAWTGIA, PRIRTVGPGSRSASGKLTCLASYCWLLWTGIA is lower in “EC50 [µM], FXa generation assay” value: over 1 µM for the first, under 0.5 µM for the second.

Going from PRIRTVGSGSRSASGKLTCLASYCWLFWTGIA to PRIRTVGPGSRSASGKLTCSASYCWLFWTGIA, the “EC50 [µM], FXa generation assay” value rises from under 0.5 µM to over 1 µM.

PRIRTSGPGSRSASGKLTCLASYCWLFWTGIA and PRIRTVGPGSRSASGKLTCLASYCWLFWTSIA cannot be ordered by “EC50 [µM], FXa generation assay” value: under 0.5 µM for the first, under 0.5 µM for the second.

B4 and PRIRTVGPGSRSASGKLTCLASYCWLFWTGI cannot be ordered by “EC50 [µM], FXa generation assay” value: under 0.5 µM for the first, under 0.5 µM for the second.

B5 and B6 cannot be ordered by “EC50 [µM], FXa generation assay” value: under 0.5 µM for the first, under 0.5 µM for the second.

Going from B7 to B8, the “EC50 [µM], FXa generation assay” value rises from under 0.5 µM to over 1 µM.

Going from B9 to B10, the “EC50 [µM], FXa generation assay” value falls from over 1 µM to under 0.5 µM.

RRFVGGSLSQRRAPGKLTCLASYCWLFWTGIA [RRFVGGSLSQ RRAPG KLTCLASYCWLFWTGIA] and PRIRTVGPGSRSASGKSTCLASYCWLFWTGIAX (not fully specified; D-Arg 4, D-Arg 11, C-terminal PEG4-Pra) [PRIrTVGPGSrSASGKSTCLASYCWLFWTGIA-PEG4-Pra] cannot be ordered by “EC50 [µM], FXa generation assay” value: under 0.5 µM for the first, under 0.5 µM for the second.

Going from PTDTGPVISGLRAPGKLTCLASYCWLFWTGIA [PTDTGPVISG LRAPG KLTCLASYCWLFWTGIA] to B11, the “EC50 [µM], FXa generation assay” value rises from under 0.5 µM to over 1 µM.

B12 and GSVRRALFVAARAPAKLTCLASYCWLFWTGIA [GSVRRALFVA ARAPA KLTCLASYCWLFWTGIA] cannot be ordered by “EC50 [µM], FXa generation assay” value: under 0.5 µM for the first, under 0.5 µM for the second.
